Data taken from article PMC4772626.
Values joined by “and” are separate entries in the source; they are usually repeats but may differ in a detail not shown here. Equal entries are not always repeated.

Target: SMV helper component protease tagged with the Flag epitope at the N-terminus (soybean mosaic virus strain G7H)
Experiment: affinity purification with mass spectrometry; crude extract of upper symptomatic soybean leaves at 15 dpi (20 mM Tris-HCl pH 7.5, 300 mM NaCl, 5 mM MgCl2, 5 mM dithiothreitol, 0.5% Triton X-100); anti-Flag antibody-conjugated agarose beads 16 h at 4 °C, five washes; 10% SDS-PAGE, Coomassie blue, dominant bands excised and identified by LC-MS/MS; Flag-tagged GFP as negative control

Substance: SMV helper component protease tagged with the Flag epitope at the N-terminus (natural protein)
- stoichiometry N: 4 and 2
